Test results from patent publication US20040234982A1 (published 2004).

Tests used:
[1] = test system: unknown -112 site binding nuclear protein; experiment: EMSA
T/EBP/NKX2.1 (TTF1) = target: T1, T/EBP/NKX2.1 (TTF1) (UniProt P23441); experiment: cell_activity; conditions: luciferase
T1 sequence: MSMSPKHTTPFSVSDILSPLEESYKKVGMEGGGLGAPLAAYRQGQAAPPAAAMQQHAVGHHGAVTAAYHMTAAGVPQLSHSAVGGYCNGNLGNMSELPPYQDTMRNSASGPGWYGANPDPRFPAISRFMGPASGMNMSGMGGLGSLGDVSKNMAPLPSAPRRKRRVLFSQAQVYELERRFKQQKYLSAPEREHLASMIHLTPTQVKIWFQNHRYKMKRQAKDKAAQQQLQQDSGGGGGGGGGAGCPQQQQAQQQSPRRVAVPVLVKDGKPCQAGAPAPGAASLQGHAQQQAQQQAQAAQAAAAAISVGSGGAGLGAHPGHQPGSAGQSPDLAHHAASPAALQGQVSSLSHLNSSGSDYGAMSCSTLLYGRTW

[2] = target: the molecule itself; experiment: anti-c-myc immunoblot of COS-1 cell lysate and conditioned medium, non-reducing vs reducing SDS-PAGE; homodimer
Method: Three forms of cDNAs encoding type A, B and C proteins were amplified by PCR and inserted into EcoRI and XhoI site of pcDNA3.1/Myc-His(+) A vector (Invitrogen). Transient transfection into COS-1 cells was performed using Effectene transfection reagent (Qiagen). After 2 days, cells and conditioned media were collected, separated on 13% SDS-polyacrylamide gels under reducing and non-reducing conditions, and electrophoretically transferred to nitrocellulose membrane (Schleicher & Schuell). The filter was incubated in PBS containing 5% skim milk, and then for 1 h with 250-fold diluted c-myc 9E10 […] antibody (Santa Cruz Biotechnology, Santa Cruz, Calif.). The filter was washed in PBS containing 0.1% Tween 20, incubated with horseradish peroxidase (HRP)-conjugated anti-rabbit IgG (Amersham Pharmacia Biotech), and then washed with the same buffer. Protein bands were detected using ECL Western blotting detection reagent (Amersham Pharmacia Biotech).
The polypeptides of uteroglobin/CCSP family members form a homodimer or heterodimer (Mukherjee et al., Cell Mol Life Sci 55:771-787, 1999). […] In contrast, no band corresponding to polypeptide C was ever detected in either the cell lysate or the medium under any conditions examined, despite the effort to keep the procedures of transient expression and immunoblot analyses consistent for all three polypeptides. […]

-112A oligonucleotide gave a binding signal (fold affinity vs -112G) ([1]; binds at same mobility, about 2-fold lower affinity) of 0.5.

-112G oligonucleotide gave a binding signal (fold affinity vs -112A) ([1]; competition with unlabeled oligonucleotides) of 2.

pGL3-147 mouse UGRP1 promoter reporter showed an activity (fold activation) (T/EBP/NKX2.1 (TTF1); HeLa cells) of 5.

In the case of pGL3-190 mouse UGRP1 promoter reporter, the activity (fold activation) (T/EBP/NKX2.1 (TTF1); NCI-H441 cells) is reported as 4.

B1: Mouse UGRP1 type A polypeptide tagged with a c-myc epitope at the carboxyl-terminus, expressed in COS-1 cells (other, not shown: small tags and cut ends)
chain: LLINRLPVVDKLPVPLDDIIPSFDPLKMLLKTLGISVEHLVTGLKKCVDELGPEASEAVKKLLEALSHLV
notes: Type A is 91 amino acids; The protein was found as a homodimer under non-reducing conditions; also called polypeptide A
B1: binds [2].
